Data: patent US7041458B2, “Methods and reagents for determining protein S” (priority 1996, dated 2006)
Bridges are numbered along the chain shown (N, C = ends). Where no end group is shown, it is not given here.

How the values were obtained:
[1] = target: T1, protein S-C4BP interaction (Homo sapiens, UniProt P20851); test: Peptide inhibition of the protein S-C4BP interaction by surface plasmon resonance (BIAcore, immobilized C4BP); type: binding; conditions: for effect on binding of human protein S to C4BP (SPR response): 50 nM protein S, peptide up to 100 μM (2000-fold excess); for IC50: 50 nM human protein S, immobilized C4BP, read-out: half maximum inhibition, peptide concentration; for inhibition of the protein S-C4BP interaction (summary of the above tests): up to 2000-fold excess over protein S
T1 construct: C4BPβ was first isolated from human plasma in the form of the protein S-C4BP complex; from tissue; host or cells: human plasma
T1 sequence (P20851 18-252): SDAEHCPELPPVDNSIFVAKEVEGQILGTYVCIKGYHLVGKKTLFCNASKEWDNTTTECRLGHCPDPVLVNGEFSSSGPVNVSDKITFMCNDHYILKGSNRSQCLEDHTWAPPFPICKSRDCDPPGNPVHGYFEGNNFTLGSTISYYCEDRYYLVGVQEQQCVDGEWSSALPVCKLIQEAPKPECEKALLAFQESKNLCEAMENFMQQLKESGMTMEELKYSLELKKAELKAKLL
T1 sequence (P04003 49-597 partner): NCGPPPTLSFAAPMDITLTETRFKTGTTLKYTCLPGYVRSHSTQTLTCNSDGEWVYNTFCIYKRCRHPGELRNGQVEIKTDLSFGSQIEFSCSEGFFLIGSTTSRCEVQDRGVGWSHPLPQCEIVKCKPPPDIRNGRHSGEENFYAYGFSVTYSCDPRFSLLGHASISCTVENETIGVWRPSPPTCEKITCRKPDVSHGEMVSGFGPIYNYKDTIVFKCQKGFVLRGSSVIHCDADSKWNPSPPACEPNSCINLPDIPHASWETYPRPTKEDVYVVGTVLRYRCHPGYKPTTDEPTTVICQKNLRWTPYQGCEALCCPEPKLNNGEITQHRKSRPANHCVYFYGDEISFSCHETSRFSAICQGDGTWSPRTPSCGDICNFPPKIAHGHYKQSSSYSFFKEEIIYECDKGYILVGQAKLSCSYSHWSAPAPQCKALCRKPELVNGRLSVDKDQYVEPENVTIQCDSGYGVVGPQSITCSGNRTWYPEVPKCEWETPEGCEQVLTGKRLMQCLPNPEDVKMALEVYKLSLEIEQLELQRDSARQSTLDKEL
Method: E. Peptide Inhibition of the Protein S-C4BP Interaction According to Surface Plasmon Resonance Studies.
The surface plasmon resonance studies were performed using a BIAcore™ apparatus from Pharmacia Biosensor AB. Immobilization of C4BP to the dextran coated gold surface of a sensorchip was performed at a flow rate of 5 μl/min, using HC as flow buffer. Equal volumes of 0.1 M NHS and 0.1 M EDC were first mixed, whereafter 30 μl of the mixture was flown over the sensorchip surface to activate the carboxymethylated dextran. C4BP was then injected over the sensorchip (40 μl of a 60 μg/ml solution in 10 mM NaOAc at pH 4.75), whereafter unreacted NHS-ester groups were blocked by 15 μl 1M ethanolamine (pH 8.5). The system was regenerated by addition of 15 μl 0.1 M HCl, which removes all non-covalently bound molecules. The immobilized amount of C4BP was 8000 RU. Protein S association was monitored with 50 nM human protein S in HC buffer in a continuous flow of 1 μl per minute during 45 minutes. The ability of each peptide to inhibit the protein S binding was studied by following the association to C4BP for mixtures of protein S and peptide. In BIAcore™, the total amount of bound material is measured, and the peptides are 25-fold smaller than protein S, inhibition of protein S-binding by peptide binding will drastically lower the observed response during the association phase. The percent protein S bound, X, was calculated as X=(S−0.04Smax)/0.96Smax where S is the measured response and Smax is the response obtained in the absence of peptide.
As disclosed in Section E, the ability of the synthetic peptides to inhibit the binding of human protein S to C4BP was also studied using surface plasmon resonance on a BIA-core™ system.
(§1) In these figures, peptide inhibition of the protein S-C4BP interaction is shown as the amount of protein S bound (relative to the amount bound in the absence of peptide) versus concentration of the nine peptides listed in Table 1: (o) SL1, (♦) SL2, (□) SL3, (+) SL4, (⋄) SL5, (●) SL6, (▾) SL7, (Δ) BD4 & (∇) BD6. In FIG. 5A, the result from an equilibrium binding assay using immobilized C4BP in microtiter wells and radiolabelled human protein S is shown. […] In FIG. 5B, the result from surface plasmon resonance assay on a BIAcore™ sensorchip is shown. The amount of protein S bound, X, was calculated from the observed signal intensity, S, compared to the maximum signal intensity in the absence of peptide Smax, as […].

[2] = target: T1, protein S-C4BP interaction; test: Peptide inhibition of the protein S-C4BP interaction in microtiter plates (equilibrium binding assay, 125I-labelled protein S tracer, immobilized C4BP); conditions: displacement of 125I-labelled protein S from immobilized C4BP, EDTA buffer; read-out: half-maximum inhibition
Method: D. Peptide Inhibition of the Protein S-C4BP Interaction in Microtiter Plates.
Microtiter plates were coated with C4BP, 50 μl/well, 10 μg/ml in 0.075 M sodium carbonate buffer, pH 9.6. The plates were incubated over night at 4° C. and then washed with TBS, pH 7.5, containing 0.1% Tween 20. […] The wells were then washed and the amount of bound protein S detected using a γ-counter.
As disclosed in Section D, the synthetic peptides were tested for their ability to displace binding of a ^125I-labelled protein S tracer to immobilized C4BP (FIG. 5A).
as §1

C4BP = target: T2, C4BP (Homo sapiens, UniProt P20851); test: Fluorescence polarization titration of peptides with C4BP (results not shown); type: binding; conditions: read-out: dissociation constant KD of the peptide-C4BP complex
T2 sequence (P20851 18-252): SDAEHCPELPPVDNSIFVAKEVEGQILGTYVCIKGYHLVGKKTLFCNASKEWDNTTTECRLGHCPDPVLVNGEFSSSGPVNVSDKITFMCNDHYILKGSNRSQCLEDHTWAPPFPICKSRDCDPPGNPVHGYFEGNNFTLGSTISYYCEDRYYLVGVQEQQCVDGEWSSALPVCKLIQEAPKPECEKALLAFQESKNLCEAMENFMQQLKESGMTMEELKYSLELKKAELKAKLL
T2 sequence (P04003 49-597 partner): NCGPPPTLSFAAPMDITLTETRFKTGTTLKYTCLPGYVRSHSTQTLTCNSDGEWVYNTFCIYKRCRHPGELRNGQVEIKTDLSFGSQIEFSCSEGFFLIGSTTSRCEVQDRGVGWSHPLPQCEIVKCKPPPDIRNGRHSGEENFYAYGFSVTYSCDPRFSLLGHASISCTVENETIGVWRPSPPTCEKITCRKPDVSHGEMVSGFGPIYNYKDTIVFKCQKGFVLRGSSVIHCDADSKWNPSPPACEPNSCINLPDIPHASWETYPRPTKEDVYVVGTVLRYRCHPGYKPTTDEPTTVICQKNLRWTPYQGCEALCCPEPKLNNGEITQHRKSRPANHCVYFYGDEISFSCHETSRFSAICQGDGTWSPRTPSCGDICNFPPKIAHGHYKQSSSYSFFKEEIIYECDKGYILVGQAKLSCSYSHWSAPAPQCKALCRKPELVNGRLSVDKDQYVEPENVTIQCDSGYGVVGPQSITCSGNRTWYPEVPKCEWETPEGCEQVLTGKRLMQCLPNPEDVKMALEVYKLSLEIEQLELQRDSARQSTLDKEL
Excerpt: The difference in KD observed for the peptide and protein might in part be due to post translational modification of the protein.

## KPENGLLETKVYFAGFPRK [SL1]
[1]
  effect on binding of human protein S to C4BP (SPR response): the same response was observed as with protein S alone

## LVTVEKGSYYPGSGIAQ [SL5]
[1]
  effect on binding of human protein S to C4BP (SPR response): the same response was observed as with protein S alone

## LVTVEKGSYYPGSGIAQFHIDYNNVSSAEGWHVN [SL7]
[2]
  IC50: 100 to 200 µM
[1]
  IC50: 30 to 120 µM
C4BP
  Kd: ≤ 1 µM

## SDQQSHLEFRVNNLEKSTPLK [SL3]
[1]
  effect on binding of human protein S to C4BP (SPR response): the same response was observed as with protein S alone

## LDGCIRSWNLMKQGASGIKEIIQEKQNKHCLVT (disulfide 4-30 (inferred)) [BD4, reference compound]
[1]
  effect on binding of human protein S to C4BP (SPR response): the same response was observed as with protein S alone
  inhibition of the protein S-C4BP interaction (summary of the above tests): gave no inhibitory effect
[1]; listed as 405–437
  inhibition of the protein S-C4BP interaction (summary of the above tests): did not show any inhibitory effect

## YNGCMEVNINGVQLDLDEAISKHNDIRAHSCPSV (disulfide 4-31 (inferred)) [BD6, reference compound]
[1]
  effect on binding of human protein S to C4BP (SPR response): the same response was observed as with protein S alone
  inhibition of the protein S-C4BP interaction (summary of the above tests): gave no inhibitory effect
[1]; listed as 595–628
  inhibition of the protein S-C4BP interaction (summary of the above tests): did not show any inhibitory effect

## EKGSYYPGSGIAQFHIDYNNVS [SL2]
[2]
  IC50: 100 to 200 µM
[1]
  IC50: 30 to 120 µM
C4BP
  Kd: ≤ 1 µM
